Experimental findings from patent US20240392262A1, “TRANSPOSASE AND USES THEREOF” (Poseida Therapeutics, Inc., published 2024) are described below.

Positions count from the first letter of the chain named.

Data set [1] deals with T1, GFP1 Right NT-betaN TAL-PBx (synthetic construct).
T1 chain: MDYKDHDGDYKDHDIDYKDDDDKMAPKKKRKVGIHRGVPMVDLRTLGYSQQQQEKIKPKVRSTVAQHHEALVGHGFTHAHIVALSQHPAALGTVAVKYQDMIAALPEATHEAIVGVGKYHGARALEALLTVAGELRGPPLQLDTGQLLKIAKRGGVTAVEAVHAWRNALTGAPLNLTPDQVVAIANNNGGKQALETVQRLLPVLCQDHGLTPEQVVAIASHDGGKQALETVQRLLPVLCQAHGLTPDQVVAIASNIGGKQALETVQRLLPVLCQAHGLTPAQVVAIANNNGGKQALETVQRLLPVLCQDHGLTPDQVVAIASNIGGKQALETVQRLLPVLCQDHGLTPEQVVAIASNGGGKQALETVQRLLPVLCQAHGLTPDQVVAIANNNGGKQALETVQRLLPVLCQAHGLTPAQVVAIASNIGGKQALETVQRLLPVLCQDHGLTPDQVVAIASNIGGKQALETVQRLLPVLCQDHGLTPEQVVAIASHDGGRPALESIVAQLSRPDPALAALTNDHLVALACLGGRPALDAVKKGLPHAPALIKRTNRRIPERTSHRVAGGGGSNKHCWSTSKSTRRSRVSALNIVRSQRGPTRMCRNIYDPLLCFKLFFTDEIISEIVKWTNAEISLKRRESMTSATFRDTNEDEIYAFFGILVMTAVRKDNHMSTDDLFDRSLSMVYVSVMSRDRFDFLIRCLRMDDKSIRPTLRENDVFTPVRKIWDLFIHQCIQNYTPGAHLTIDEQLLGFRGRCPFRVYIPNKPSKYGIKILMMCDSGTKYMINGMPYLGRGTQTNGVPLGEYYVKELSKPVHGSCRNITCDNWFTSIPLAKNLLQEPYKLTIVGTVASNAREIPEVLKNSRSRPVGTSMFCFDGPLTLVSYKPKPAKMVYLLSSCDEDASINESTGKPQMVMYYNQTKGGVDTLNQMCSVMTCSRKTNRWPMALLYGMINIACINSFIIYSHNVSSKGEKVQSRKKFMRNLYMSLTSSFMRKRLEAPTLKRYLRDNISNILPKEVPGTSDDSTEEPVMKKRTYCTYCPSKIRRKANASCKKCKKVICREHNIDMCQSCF
The data set can be described thus: cell_activity. As to conditions: tags: 3xFlag, SV40 NLS; chain copies: 2.

Another data set addresses T2, GFP1 Right NT-G TAL-PBx (synthetic construct).
T2 chain: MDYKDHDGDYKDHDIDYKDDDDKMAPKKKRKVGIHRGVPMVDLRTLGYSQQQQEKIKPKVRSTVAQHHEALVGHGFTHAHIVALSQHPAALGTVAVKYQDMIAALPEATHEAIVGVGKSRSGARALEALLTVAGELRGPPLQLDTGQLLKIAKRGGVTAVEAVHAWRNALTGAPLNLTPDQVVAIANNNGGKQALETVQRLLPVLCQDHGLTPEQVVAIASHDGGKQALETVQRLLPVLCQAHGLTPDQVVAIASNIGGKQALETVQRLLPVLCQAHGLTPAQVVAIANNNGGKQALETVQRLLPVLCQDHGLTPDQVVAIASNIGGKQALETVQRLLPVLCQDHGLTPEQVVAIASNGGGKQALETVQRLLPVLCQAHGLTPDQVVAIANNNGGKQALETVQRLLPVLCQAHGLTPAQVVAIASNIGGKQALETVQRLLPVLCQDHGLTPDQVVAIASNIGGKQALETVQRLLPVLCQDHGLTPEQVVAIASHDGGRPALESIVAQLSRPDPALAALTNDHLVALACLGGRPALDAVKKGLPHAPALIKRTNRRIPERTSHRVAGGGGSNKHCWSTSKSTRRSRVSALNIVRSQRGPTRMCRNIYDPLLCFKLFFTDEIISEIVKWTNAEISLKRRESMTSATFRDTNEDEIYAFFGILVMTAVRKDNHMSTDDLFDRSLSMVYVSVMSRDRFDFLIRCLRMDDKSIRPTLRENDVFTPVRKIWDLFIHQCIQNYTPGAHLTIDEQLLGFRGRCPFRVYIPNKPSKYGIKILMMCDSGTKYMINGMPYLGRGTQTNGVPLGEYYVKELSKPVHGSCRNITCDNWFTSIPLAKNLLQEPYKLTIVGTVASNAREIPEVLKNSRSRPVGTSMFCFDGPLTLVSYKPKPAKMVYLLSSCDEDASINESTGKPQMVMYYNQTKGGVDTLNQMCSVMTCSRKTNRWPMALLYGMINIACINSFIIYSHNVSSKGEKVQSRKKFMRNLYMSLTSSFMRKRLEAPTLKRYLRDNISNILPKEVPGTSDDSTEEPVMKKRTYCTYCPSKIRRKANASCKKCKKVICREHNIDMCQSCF
Description: cell_activity. As to conditions: tags: 3xFlag, SV40 NLS; chain copies: 2.

A further data set concerns the target T3, GFP1 Right TALEN NT-G (synthetic construct).
T3 chain: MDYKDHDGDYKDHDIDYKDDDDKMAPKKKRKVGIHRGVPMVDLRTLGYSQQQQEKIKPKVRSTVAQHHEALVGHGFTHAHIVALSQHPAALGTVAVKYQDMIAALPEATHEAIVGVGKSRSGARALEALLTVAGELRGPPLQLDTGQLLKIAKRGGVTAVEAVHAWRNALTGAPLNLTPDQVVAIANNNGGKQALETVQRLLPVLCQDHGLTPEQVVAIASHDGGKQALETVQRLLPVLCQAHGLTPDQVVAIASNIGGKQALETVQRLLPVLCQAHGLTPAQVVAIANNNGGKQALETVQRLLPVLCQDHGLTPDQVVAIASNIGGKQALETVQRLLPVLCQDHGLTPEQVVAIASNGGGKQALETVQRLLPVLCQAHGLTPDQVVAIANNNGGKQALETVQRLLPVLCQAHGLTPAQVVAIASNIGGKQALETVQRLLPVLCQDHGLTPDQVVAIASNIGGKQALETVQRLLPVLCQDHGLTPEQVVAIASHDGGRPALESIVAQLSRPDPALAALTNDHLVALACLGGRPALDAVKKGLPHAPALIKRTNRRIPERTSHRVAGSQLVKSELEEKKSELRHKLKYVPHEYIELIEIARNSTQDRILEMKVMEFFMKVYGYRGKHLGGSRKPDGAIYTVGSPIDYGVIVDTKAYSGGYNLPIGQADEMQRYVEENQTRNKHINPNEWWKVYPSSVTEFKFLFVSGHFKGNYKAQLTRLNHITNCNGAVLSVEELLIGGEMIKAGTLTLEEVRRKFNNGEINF
Description: cell_activity; SSA. As to conditions: tags: 3xFlag, SV40 NLS, FokI fusion; chain copies: 2. As for the experimental part:
(§1) The TALEN NT-G and NT-ON designs were tested using the single strand annealing reporter (Example 17). The target site corresponding to the GFP1 Right TALEN (SEQ ID NO: 288) was modified to replace T 5′ of the target sites with either an A, a C, or a G to create SEQ ID NOs: 403-405). A transfection mixture containing 90 ng of each TALEN, 10 ng of the corresponding reporter and 1.5p of Transit-2020 transfection reagent in a total volume of 20 μl of Serum Free OptiMem medium were assembled. A TALEN or a reporter were transfected alone as negative controls. An aliquot of 30,000 HEK293T cells in 180 μl of DMEM medium supplemented with 10% FBS was added and the transfection mixture was plated in 96 well plates and incubated for one day at 37° C. at 5% CO2. The following day, a lysis buffer was added to the cells and the lysate was transferred to a white 96 well plate. A buffer containing substrate for Firefly luciferase was mixed with the cells and luciferase luminescence was detected using a plate reader.

Another data set concerns the target T4, GFP1 Right TALEN (synthetic construct).
T4 chain: T3 chain with S119Q, R120W
Description: cell_activity; SSA. As to conditions: tags: 3xFlag, SV40 NLS, FokI fusion; chain copies: 2. As for the experimental part: as §1

Data set [2] addresses T5, GFP1 Right TALEN NT-betaN (synthetic construct).
T5 chain: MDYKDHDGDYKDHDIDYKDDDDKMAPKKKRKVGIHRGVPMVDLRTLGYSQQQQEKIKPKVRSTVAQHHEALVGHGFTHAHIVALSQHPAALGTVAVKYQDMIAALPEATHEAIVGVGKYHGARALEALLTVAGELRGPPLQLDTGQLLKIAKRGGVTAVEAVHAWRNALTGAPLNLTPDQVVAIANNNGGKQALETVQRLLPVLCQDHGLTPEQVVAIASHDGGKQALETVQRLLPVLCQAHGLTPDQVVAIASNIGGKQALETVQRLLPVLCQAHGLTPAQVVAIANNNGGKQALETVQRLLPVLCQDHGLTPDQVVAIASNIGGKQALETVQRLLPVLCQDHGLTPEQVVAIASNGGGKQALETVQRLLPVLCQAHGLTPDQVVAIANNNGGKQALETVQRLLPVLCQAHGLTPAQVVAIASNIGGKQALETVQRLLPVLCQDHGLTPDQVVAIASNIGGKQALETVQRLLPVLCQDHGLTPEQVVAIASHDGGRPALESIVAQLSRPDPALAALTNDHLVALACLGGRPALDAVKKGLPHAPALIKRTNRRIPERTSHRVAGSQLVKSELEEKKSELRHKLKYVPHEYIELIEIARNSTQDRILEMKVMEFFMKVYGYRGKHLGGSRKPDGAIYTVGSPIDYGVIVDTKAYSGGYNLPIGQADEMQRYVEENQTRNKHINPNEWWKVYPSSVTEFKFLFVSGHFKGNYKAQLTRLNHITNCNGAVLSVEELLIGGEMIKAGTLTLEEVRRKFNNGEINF
The data set can be described thus: cell_activity; SSA. As to conditions: tags: 3xFlag, SV40 NLS, FokI fusion; chain copies: 2. As for the experimental part:
as §1

B1: GFP1R 13 bp 5'G (dsDNA)
DNA 1: GGCAGATGAACGCAATCTCACGGCTTAACTACTGACCTGAAGTTCATCTGCC
DNA 2: GGCAGATGAACTTCAGGTCAGTAGTTAAGCCGTGAGATTGCGTTCATCTGCC
Turning to B1, the activity (in data set [1]; with GFP1 Right NT-G TAL-PBx) was 20.4 % GFP+ throughout.

B2: GFP1 R SSA site 5'C (dsDNA)
DNA 1: GGCGCAGATGAACGCAAGCTGACCCTGAAGTTCATCTGCGTT
DNA 2: AACGCAGATGAACTTCAGGGTCAGCTTGCGTTCATCTGCGCC
For B2, the activity was determined as 693000 RLU in the data set with GFP1 Right TALEN NT-G, 419000 RLU with GFP1 Right TALEN and 1.12e+06 RLU in data set [2].

B3: GFP1 R SSA site 5'A (dsDNA)
DNA 1: B2 DNA 1 with C3A, G40T
DNA 2: B2 DNA 2 with C3A, G40T
On to B3, for which the activity with GFP1 Right TALEN NT-G was 1.14e+06 RLU; in data set [2], 1.56e+06 RLU.

B4: GFP1 R+R SSA site (dsDNA)
DNA 1: B2 DNA 1 with C3T, G40A
DNA 2: B2 DNA 2 with C3T, G40A
Consider B4, for which the results for the activity (with GFP1 Right TALEN NT-G; in data set [2]) were 1.21e+06 RLU and 1.45e+06 RLU, respectively.

B5: GFP1 R SSA site 5'G (dsDNA)
DNA 1: B2 DNA 1 with C3G, G40C
DNA 2: B2 DNA 2 with C3G, G40C
Consider B5, for which the activity with GFP1 Right TALEN NT-G is 1.07e+06 RLU; with GFP1 Right TALEN, 294000 RLU; in data set [2], 1.21e+06 RLU.
